The target in this experiment is T1, human TNF-alpha (Peprotech, London, UK) (human, UniProt P01375 77-233).
T1 construct: Commercial recombinant protein
In words: direct ELISA, plates coated with 0.5 µg/ml human TNF-alpha; ESBA105 standard series 50-0.5 ng/ml; used to quantify ESBA105 in serum and brain tissue. On the procedure: ESBA105 concentrations were determined by triplicate measurements of each sample in a direct ELISA. 96-well plates (NUNC MaxiSorp; Omnilab, Mettmenstetten, Switzerland) were coated with 0.5 μg/ml human TNF-alpha (Peprotech, London, UK) in PBS overnight at 4° C. Between each of the following steps plates were washed three times with TBS-T (0.005% Tween20; Axon Lab, Baden-Dattwyl, Switzerland) using a micro plate washer (ASYS Atlantis, Salzburg, Austria). Unspecific binding sites were saturated by 1.5 hour incubation in PBS/1% BSA/0.2% Tween20. […] Bound ESBA105 was detected with a biotinylated affinity purified polyclonal rabbit anti-ESBA105 antibody (AK3A, ESBATech, Schlieren, Switzerland) that was diluted 1:20′000 in dilution buffer (1.5 h, room temperature). AK3A, in turn, was detected with poly-horseradish peroxidase streptavidin (Stereospecific Detection Technologies, Baesweiler, Germany) at a concentration of 0.2 ng/ml dilution buffer. […] Absorbance was measured at 450 nm in a plate reader (Sunrise; Tecan, Maennedorf, Switzerland) and ESBA105 concentrations in samples were calculated by polynomial regression from a standard curve (GraphPad Prism 4.03; GraphPad Software, Inc., San Diego, Calif.). The minimum quantifiable concentration (LOQ) of ESBA105 was 5 ng/ml in serum and 33 ng/ml in brain tissue, respectively.

T1 sequence (P01375 77-233 limits assumed): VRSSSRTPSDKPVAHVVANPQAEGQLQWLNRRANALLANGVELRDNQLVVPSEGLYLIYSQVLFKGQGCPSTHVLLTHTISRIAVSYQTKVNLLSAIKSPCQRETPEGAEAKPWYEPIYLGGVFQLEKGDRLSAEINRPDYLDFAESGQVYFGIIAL

B1: ESBA105 (scFv)
scFv: MADIVMTQSPSSLSASVGDRVTLTCTASQSVSNDVVWYQQRPGKAPKLLIYSAFNRYTGVPSRFSGRGYGTDFTLTISSLQPEDVAVYYCQQDYNSPRTFGQGTKLEVKRGGGGSGGGGSGGGGSSGGGSQVQLVQSGAEVKKPGASVKVSCTASGYTFTHYGMNWVRQAPGKGLEWMGWINTYTGEPTYADKFKDRFTFSLETSASTVYMELTSLTSDDTAVYYCARERGDAMDYWGQGTLVTVSS
notes: also called ESBA105 scFv (α-TNFalpha); E105
Consider B1, for which the binding result is recorded as “binds”.

(Values after patent US20110135644A1 (ESBATECH AN ALCON BIOMEDICAL RESEARCH UNIT, published 2011).)
